We go through 19 molecules from publication PMC5454392, “Selective BET bromodomain inhibition as an antifungal therapeutic strategy” (Nature Communications, 2017).

T1: CaBdf1 BD2 (GST-tagged, wild-type) (Candida albicans (strain SC5314 / ATCC …, UniProt Q5A4W8))
T1 chain: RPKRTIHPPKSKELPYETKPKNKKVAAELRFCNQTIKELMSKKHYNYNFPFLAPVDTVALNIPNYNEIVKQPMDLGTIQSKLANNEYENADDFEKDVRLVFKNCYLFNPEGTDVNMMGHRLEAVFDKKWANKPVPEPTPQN

T2: CaBdf1 BD1 (GST-tagged, wild-type) (Candida albicans (strain SC5314 / ATCC …, UniProt Q5A4W8))
T2 chain: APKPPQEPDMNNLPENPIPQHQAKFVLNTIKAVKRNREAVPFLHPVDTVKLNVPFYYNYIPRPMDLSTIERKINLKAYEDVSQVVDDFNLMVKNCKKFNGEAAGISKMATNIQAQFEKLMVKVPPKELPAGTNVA

B1: H3 16-35 (peptide)
chain: PRKQLATKAAR(Me2s)K(Me2)[pS]APATGG
B2: H3 1-19 (peptide)
chain: ARTKQTARKSTGGKAPRKQ
modifications: A R T K Q T A R Kme3 S pT G G K A P R K Q
B3: H2a 1-19 (peptide)
chain: [pS]GRGKQGGKARAKAKSRSS
B4: H3 16-35 (peptide)
chain: PRKQLATKAARK(Me)SAPATGG
B5: H3 1-19 (peptide)
chain: ARTKQTARKSTGGKAPRKQ
modifications: A R T K Q T A R Kme3 S T G G K A P R K Q
B6: H4 1-19 (peptide)
chain: SGRGKGGKGLGKGGAKRHR
modifications: S G R G K G G Kac G L G Kac G G A K R H R
B7: H3 1-19 (peptide)
chain: A[Arg(Me2s)][pT]K(Ac)QTARKSTGGKAPRKQ
B8: H3 1-19 (peptide)
chain: ARTKQTARKSTGGKAPRKQ
modifications: A R T K Q T A R Kme2 pS T G G K A P R K Q
B9: H2B 1-19 (peptide)
chain: PDPAKSAPAPKKGSKKAVT
modifications: not fully specified
B10: H3 1-19 (peptide)
chain: ART[Kac]QTA[Arg(Me2a)][Lys(Me2)]STGGKAPRKQ
B11: H2B 1-19 (peptide)
chain: PDPAKSAPAPKKGSK(Ac)KAVT
B12: H3 1-19 (peptide)
chain: ARTKQTARKSTGGKAPRKQ
modifications: A R T K Q T A R Kme1 S pT G G K A P R K Q
B13: H4 1-19 (peptide)
chain: SGRGKGGKGLGKGGAKRHR
modifications: S G R G Kac G G Kac G L G K G G A K R H R
B14: H3 1-19 (peptide)
chain: ARTKQTARKSTGGKAPRKQ
modifications: A Rme2s T Kme2 Q T A Rme2s K S T G G K A P R K Q
B15: H3 1-19 (peptide)
chain: ARTKQTARKSTGGKAPRKQ
modifications: A Rme2a T Kme3 Q T A Rme2s Kme1 S T G G K A P R K Q
B16: H3 16-35 (peptide)
chain: PRKQLATKAARK(Ac)SAPATGG
B17: H3 16-35 (peptide)
chain: PRKQLATKAA[Arg(Me2s)]K(Ac)[pS]APATGG
B18: H3 1-19 (peptide)
chain: ARTKQTARKSTGGKAPRKQ
modifications: A Rme2a T Kme1 Q T A Rme2s Kme3 S T G G K A P R K Q
B19: H3 1-19 (peptide)
chain: ARTK(Me)QTARKSTGGKAPRKQ

Numbered stars: 1 amine (or outer) side, 2 acyl side, 3 side chain; on linkers, the order of the positions; unused ones are H or OH. Square brackets hold non-standard residues; d marks the D form. Ends that are not written are not given here. Arg(Me2a) = CN(C)C(=N)NCCC[C@H](N)C(=O)O; Kac = CC(=O)NCCCC[C@H](N[*:1])C(=O)[*:2]; Arg(Me2s) = CN=C(NC)NCCC[C@H](N)C(=O)O; pT = C[C@@H](OP(=O)(O)O)[C@H](N)C(=O)O; Lys(Me2) = CN(C)CCCC[C@H](N)C(=O)O; pS = N[C@@H](COP(=O)(O)O)C(=O)O

The first assay concerns the target T1, CaBdf1 BD2 (GST-tagged, wild-type). In words: histone peptide array (Active Motif MODified), 1 uM GST-tagged bromodomain, anti-GST detection, normalized mean intensity.
In the case of B1, the binding score came to 0.00074.

Regarding B2, the binding score came to 0.0037.

The molecule B3 showed a binding score of 0.00592.

The molecule B4 yielded a binding score of 0.00333.

Molecule B5 displayed a binding score of 0.00222.

The molecule B6 came in with a binding score of 0.0418.

Turning to B7, the binding score turned out to be 0.00333.

On to B8, for which the binding score is 0.00333.

The molecule B9 had a binding score of 0.00074.

Turning to B10, the binding score turned out to be 0.00555.

Regarding B11, the binding score was 0.00481.

Molecule B12 registered a binding score of 0.0037.

The molecule B13 came in with a binding score of 0.0326.

The molecule B14 showed a binding score of 0.00629.

Molecule B15 gave a binding score of 0.00407.

B16 came in with a binding score of 0.0307.

For the molecule B17, the binding score stood at 0.00629.

Take B18: the binding score was 0.00629.

Take B19: the binding score turned out to be 0.00185.

In another assay the target is T2, CaBdf1 BD1 (GST-tagged, wild-type). The assay is described as above.
In the case of B1, the binding score was 0.00363.

Take B2: the binding score came to 0.00363.

The molecule B3 gave a binding score of 0.0131.

B4 returned a binding score of 0.00798.

Molecule B5 came in with a binding score of 0.0029.

B6: the binding score is 0.0707.

In turn, B7 displayed a binding score of 0.00761.

B8 yielded a binding score of 0.00326.

Consider B9, for which the binding score stood at 0.00435.

B10 registered a binding score of 0.00761.

B11 showed a binding score of 0.0199.

Consider B12, for which the binding score turned out to be 0.00326.

As for B13, the binding score stood at 0.0294.

For B14, the binding score was 0.00181.

The molecule B15 came in with a binding score of 0.00326.

In the case of B16, the binding score is 0.0138.

The molecule B17 had a binding score of 0.00145.

B18: the binding score turned out to be 0.00471.

In turn, B19 returned a binding score of 0.000725.
